Results from US20030148958A1 (PROCTER AND GAMBLE, published 2003).
Ends that are not written are not given here.

T1: CRF2R
T1 sequence (Q13324 whole entry, species assumed, looked up): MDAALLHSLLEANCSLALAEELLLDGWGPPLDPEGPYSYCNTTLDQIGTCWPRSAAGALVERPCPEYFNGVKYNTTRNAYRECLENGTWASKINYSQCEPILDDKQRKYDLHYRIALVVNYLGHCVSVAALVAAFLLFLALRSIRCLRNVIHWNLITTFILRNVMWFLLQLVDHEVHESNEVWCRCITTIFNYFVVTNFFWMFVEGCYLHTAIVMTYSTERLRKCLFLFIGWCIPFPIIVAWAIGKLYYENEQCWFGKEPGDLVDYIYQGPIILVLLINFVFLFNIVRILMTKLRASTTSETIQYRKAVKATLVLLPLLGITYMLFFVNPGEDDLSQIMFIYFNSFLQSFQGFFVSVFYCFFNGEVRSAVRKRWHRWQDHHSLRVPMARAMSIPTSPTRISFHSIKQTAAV


Molecular target: T1, CRF2R
Assay: cell-based or functional assay
Throughout, for CRF1R Emax %: reference of the scale not given here.
Throughout, for CRF2R Emax %: reference of the scale not given here.

| Binder | CRF2R EC50 [nM] | CRF2R Emax % [%] |
| --- | --- | --- |
| ZGPPISIDLPFQLLRKVIEIEKQEKEKQQAANNARLLDTI (C-terminal amide) [SEQ ID NO 278] | 19.6 | 100 |
| ZGPPISIDLPQILLRKVIEIEKQEKEKQQAANNRLLLDTI (C-terminal amide) [SEQ ID NO 293] | 40.3 | 87 |
| ZGPPISIDLPTWLLRKVIEIEKQEKEKQQAANNARLLARI (C-terminal amide) [SEQ ID NO 291] | 100 | 63.8 |
| ZGPPISIDLPYWLLRKMIEIEKQEKEKQQAANNARLLARI (C-terminal amide) [SEQ ID NO 289] | 12.2 | 97.3 |
| ZGPPISIDLPIFLLRKMIEIEKQEKEKQQAANNARLLARI (not fully specified; C-terminal amide) [SEQ ID NO 282] | 25.8 | 60.8 |
| ZGPPISIDLPYQLLRKVIEIEKQEKEKQQAANNRLLLDTI (C-terminal amide) [SEQ ID NO 283] | 10.6 | 72 |
| ZGPPISIDLPIILLRKVIEIEKQEKEKQQAANNARLLARI (C-terminal amide) [SEQ ID NO 295] | 55 | 67.6 |
| ZGPPISIDLPQILLRKVIEIEKQEKEKQQAANNARLLARI (C-terminal amide) [SEQ ID NO 294] | 100 | 100 |
| ZGPPISIDLPTWLLRKVIEIEKQEKEKQQAANNRLLLDTI (C-terminal amide) [SEQ ID NO 284] | 100 | 100 |
| ZGPPISIDLPFQLLRKVIEIEKQEKEKQQAANNARLLARI (not fully specified; C-terminal amide) [SEQ ID NO 279] | 13.1 | 100 |
| ZGPPISIDLPYQLLRKVIEIEKQEKEKQQAANNARLLARI (C-terminal amide) [SEQ ID NO 286] | 13.5 | 92.5 |
| ZGPPISIDLPQILLRKMIEIEKQEKEKQQAANNARLLARI (C-terminal amide) [SEQ ID NO 285] | 13.9 | 97.1 |
| ZGPPISIDLPIFLLRKVIEIEKQEKEKQQAANNALLLATI (not fully specified; C-terminal amide) [SEQ ID NO 280] | 100 | 82.3 |
| ZGPPISIDLPIFLLRKVIEIEKQEKEKQQAANNARLLARI (C-terminal amide) [SEQ ID NO 281] | 100 | 78.8 |
| ZGPPISIDLPIILLRKMIEIEKQEKEKQQAANNARLLARI (C-terminal amide) [SEQ ID NO 290] | 100 | 100 |
| ZGPPISIDLPTWLLRKMIEIEKQEKEKQQAANNARLLARI (C-terminal amide) [SEQ ID NO 292] | 100 | 86.1 |
| ZGPPISIDLPYQLLRKMIEIEKQEKEKQQAANNARLLAR (C-terminal amide) [SEQ ID NO 287] | 11.3 | 100 |
| ZGPPISIDLPYQLLRKMIEIEKQEKEKQQAANNARLLAR (C-terminal amide) [SEQ ID NO 288] | 14.7 | 100 |

Next, values leading:

| CRF2R EC50 [nM] | CRF2R Emax % [%] | Binder |
| --- | --- | --- |
| 35.5 | 95.2 | ZGPPISIDLPVALLRKMIEIEKQEKEKQQAANNRLLLDTI (C-terminal amide) [SEQ ID NO 305] |
| 50.5 | 88.4 | ZGPPISIDLPTALLRKMIEIEKQEKEKQQAANNRLLLDTI (C-terminal amide) [SEQ ID NO 301] |
| 27.2 | 100 | ZGPPISIDLPAALLRKMIEIEKQEKEKQQAANNRLLLDTI (C-terminal amide) [SEQ ID NO 303] |
| 36.2 | 100 | ZGPPISIDLPQALLRKMIEIEKQEKEKQQAANNRLLLDTI (C-terminal amide) [SEQ ID NO 302] |
| 46.4 | 71.5 | ZGPPISIDLPQILLRKVIEIEKQEKEKQQAANNALLLATI (C-terminal amide) [SEQ ID NO 299] |
| 82 | 98.8 | ZGPPISIDLPIFLLRKMIEIEKQEKEKQQAANNALLLATI (C-terminal amide) [SEQ ID NO 298] |
| 100 | 88.3 | ZGPPISIDLPIILLRKVIEIEKQEKEKQQAANNRLLLDTI (C-terminal amide) [SEQ ID NO 297] |
| 19.3 | 92.5 | ZGPPISIDLPHALLRKMIEIEKQEKEKQQAANNRLLLDTI (C-terminal amide) [SEQ ID NO 304] |
| 27.6 | 100 | ZGPPISIDLPIALLRKMIEIEKQEKEKQQAANNRLLLDTI (C-terminal amide) [SEQ ID NO 306] |
| 6.66 | 65 | HHHHHHIVLSLDVPIGLLQILLEQARARAAREQATTNARILARN-NH2 [SEQ ID NO 296] |
| 17.1 | 100 | IVLSLDVPIGLLQKVIEIEKQEKEKQQATTNARILARV-NH2 [SEQ ID NO 300] |

Molecular target: CRF1R
Assay: cell-based or functional assay

| Binder | CRF1R EC50 [nM] | CRF1R Emax % [%] |
| --- | --- | --- |
| ZGPPISIDLPFQLLRKVIEIEKQEKEKQQAANNARLLDTI (C-terminal amide) [SEQ ID NO 278] | 1000 | 48.7 |
| ZGPPISIDLPQILLRKVIEIEKQEKEKQQAANNRLLLDTI (C-terminal amide) [SEQ ID NO 293] | 520 | 95.3 |
| ZGPPISIDLPTWLLRKVIEIEKQEKEKQQAANNARLLARI (C-terminal amide) [SEQ ID NO 291] | 1000 | 4.75 |
| ZGPPISIDLPYWLLRKMIEIEKQEKEKQQAANNARLLARI (C-terminal amide) [SEQ ID NO 289] | 1000 | 69.5 |
| ZGPPISIDLPIFLLRKMIEIEKQEKEKQQAANNARLLARI (not fully specified; C-terminal amide) [SEQ ID NO 282] | 1000 | 21.8 |
| ZGPPISIDLPYQLLRKVIEIEKQEKEKQQAANNRLLLDTI (C-terminal amide) [SEQ ID NO 283] | 635 | 100 |
| ZGPPISIDLPIILLRKVIEIEKQEKEKQQAANNARLLARI (C-terminal amide) [SEQ ID NO 295] | 1000 | 5.3 |
| ZGPPISIDLPQILLRKVIEIEKQEKEKQQAANNARLLARI (C-terminal amide) [SEQ ID NO 294] | 1000 | 13.6 |
| ZGPPISIDLPTWLLRKVIEIEKQEKEKQQAANNRLLLDTI (C-terminal amide) [SEQ ID NO 284] | 1000 | 27.7 |
| ZGPPISIDLPFQLLRKVIEIEKQEKEKQQAANNARLLARI (not fully specified; C-terminal amide) [SEQ ID NO 279] | 1000 | 93 |
| ZGPPISIDLPYQLLRKVIEIEKQEKEKQQAANNARLLARI (C-terminal amide) [SEQ ID NO 286] | 1000 | 19.2 |
| ZGPPISIDLPQILLRKMIEIEKQEKEKQQAANNARLLARI (C-terminal amide) [SEQ ID NO 285] | 1000 | 11.1 |
| ZGPPISIDLPIFLLRKVIEIEKQEKEKQQAANNALLLATI (not fully specified; C-terminal amide) [SEQ ID NO 280] | 1000 | 11.8 |
| ZGPPISIDLPIFLLRKVIEIEKQEKEKQQAANNARLLARI (C-terminal amide) [SEQ ID NO 281] | 1000 | 12.2 |
| ZGPPISIDLPIILLRKMIEIEKQEKEKQQAANNARLLARI (C-terminal amide) [SEQ ID NO 290] | 1000 | 6.4 |
| ZGPPISIDLPTWLLRKMIEIEKQEKEKQQAANNARLLARI (C-terminal amide) [SEQ ID NO 292] | 1000 | 7 |
| ZGPPISIDLPYQLLRKMIEIEKQEKEKQQAANNARLLAR (C-terminal amide) [SEQ ID NO 287] | 1000 |  |
| ZGPPISIDLPYQLLRKMIEIEKQEKEKQQAANNARLLAR (C-terminal amide) [SEQ ID NO 288] | 838 |  |

Results, then the binder that gave them:

| CRF1R EC50 [nM] | CRF1R Emax % [%] | Binder |
| --- | --- | --- |
| 1000 | 59.5 | ZGPPISIDLPVALLRKMIEIEKQEKEKQQAANNRLLLDTI (C-terminal amide) [SEQ ID NO 305] |
| 690 | 84.1 | ZGPPISIDLPTALLRKMIEIEKQEKEKQQAANNRLLLDTI (C-terminal amide) [SEQ ID NO 301] |
| 582 | 100 | ZGPPISIDLPAALLRKMIEIEKQEKEKQQAANNRLLLDTI (C-terminal amide) [SEQ ID NO 303] |
| 366 | 100 | ZGPPISIDLPQALLRKMIEIEKQEKEKQQAANNRLLLDTI (C-terminal amide) [SEQ ID NO 302] |
| 1000 | 10.2 | ZGPPISIDLPQILLRKVIEIEKQEKEKQQAANNALLLATI (C-terminal amide) [SEQ ID NO 299] |
| 1000 | 20.1 | ZGPPISIDLPIFLLRKMIEIEKQEKEKQQAANNALLLATI (C-terminal amide) [SEQ ID NO 298] |
| 1000 | 27.2 | ZGPPISIDLPIILLRKVIEIEKQEKEKQQAANNRLLLDTI (C-terminal amide) [SEQ ID NO 297] |
| 116 | 100 | ZGPPISIDLPHALLRKMIEIEKQEKEKQQAANNRLLLDTI (C-terminal amide) [SEQ ID NO 304] |
| 608 | 97.7 | ZGPPISIDLPIALLRKMIEIEKQEKEKQQAANNRLLLDTI (C-terminal amide) [SEQ ID NO 306] |
| 100 | 4 | HHHHHHIVLSLDVPIGLLQILLEQARARAAREQATTNARILARN-NH2 [SEQ ID NO 296] |
| 1000 | 7.95 | IVLSLDVPIGLLQKVIEIEKQEKEKQQATTNARILARV-NH2 [SEQ ID NO 300] |
